# Measurements from patent publication US20150238573A1, “NUTRITIONAL FOOD AND FEED, COMPOSITION, PROCESSING AND METHOD OF USE” (Nutrinia Ltd., priority 2004, published 2015).
# How the values were obtained:
# [1] = Stability in liquid infant formula over time (Elisa kit); assay type: physicochemical
# Source text: The InsuMeal™ is intended to be consumed immediately after solubilization in the infant formula. […] Furthermore, in order to evaluate the final product homogeneity, at each time interval, sampling was taken at the upper, middle and lower layers of the sampled RTF bottle, as well as after formula liquid stirring.
# [2] = Influence on vitamin C in the preterm RTF formula; assay type: physicochemical; conditions: 0, 6 and 12 hours from insulin supplementation
# [3] = Clinical trials of oral insulin in preterm infants; assay type: in vivo, human
# Source text: Clinical trials were done involving supplementation of preterm infant orally-fed with Insulin.
substance,measurement,setting,value
Insulin,Insulin concentration,"[1]; 0 hour from insulin addition, 100 μU in 60 ml preterm RTF formula",95.43 μU
same,Insulin concentration,[1]; 3 hour from insulin addition,105.47 μU
same,Insulin concentration,[1]; 6 hour from insulin addition,111.59 μU
same,Insulin concentration,[1]; 9 hour from insulin addition,93.34 μU
same,Insulin concentration,[1]; 12 hour from insulin addition,99.55 μU
same,Insulin concentration,[1]; 15 hour from insulin addition,105.38 μU
same,Insulin concentration,[1]; 18 hour from insulin addition,96.74 μU
same,Insulin concentration,[1]; 21 hour from insulin addition,93.78 μU
same,Insulin concentration,[1]; 24 hour from insulin addition,104.5 μU
same,time highly stable after addition to liquid infant formula,[1]; liquid infant formula,at least 24 hr
same,vitamin C concentration in formula after insulin supplementation,[2],No significant differences
same,time to full enteral feeding,"[3]; 4 Units per Kg. per day oral for 28 days, control 20 days",≤ 11 days
same,Lactase activity,"[3]; trial group, control 6.5",13.3
same,Gastric residuals,"[3]; trial group, control 54",22
